Results on three molecules are retold here after paper PMC8887749, “The interaction of dengue virus capsid protein with negatively charged interfaces drives the in vitro assembly of nucleocapsid-like particles”.

Data set [1] has as its target Dengue virus capsid (C) protein, recombinant DENVC (dengue virus serotype 2) (UniProt P29990). The data set can be described thus: SAXS.
Data set [2] has as its target DENV capsid protein (DENVC) (Dengue virus serotype 2, UniProt P29990 1-100). The data set can be described thus: fluorescence anisotropy; FITC-DENVC 50 nM; 1:1 DENVC:oligo stoichiometry; affinity stated only as nanomolar range; 55 mM NaH2PO4, 200 mM NaCl, 5 mM EDTA, pH 7.4, 25 C. Conditions: protein: recombinant; chain copies: 2; single strand.

Sequence of DENV capsid protein (DENVC) (P29990 1-100): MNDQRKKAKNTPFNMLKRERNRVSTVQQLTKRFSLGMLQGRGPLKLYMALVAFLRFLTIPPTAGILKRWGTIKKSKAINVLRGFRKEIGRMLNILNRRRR
Sequence of Dengue virus capsid (C) protein, recombinant DENVC (P29990 1-100): as above

With “Dengue virus capsid (C) protein, recombinant DENVC (from UniProt P29990 1-100) (natural protein)”, the stoichiometry N in data set [1] worked out at 2. In the case of TCCATGGTAGACAGAGGATGGGGGA (ssDNA) [25-mer ssDNA], the binding result in data set [2] was “binds”.

As to GGGGG (ssDNA) [5-mer ssDNA], the binding result in data set [2] is listed as “binds”.
